Test results published in publication PMC9311320.
pEC50, pKd: −log10 of the molar value. Values joined by “and” are separate entries in the source; they are usually repeats but may differ in a detail not shown here. Equal entries are not always repeated.

Tests used:
[1] = target: recombinant human CD38 extracellular domain (ECD) fused to a his-tag (human) (UniProt P28907); assay: SPR
[2] = target: human CD38 on Chinese hamster ovary (CHO) cells stably transfected to express CD38 (human) (UniProt P28907); assay: flow cytometry on cells
[3] = target: CD38 on CD38+ human cells (Daudi, Ramos, PBMCs) (human (endogenous in Daudi, Ramos and PBMCs)) (UniProt P28907); assay: flow cytometry on cells
[4] = target: TNB-738, anti-CD38 biparatopic antibody (human (from transgenic UniRat) | human); assay: BLI

Row | pKd [1] | pEC50 [2] | pEC50 [3] | pKd [4] | Substance
1 | 8.42 to 10.00 | 7.15 | 7.40 and 7.30 |  | TNB-738, anti-CD38 biparatopic antibody (bispecific antibody)
2 |  |  |  | 8.61 | recombinant human CD38 extracellular domain (ECD) fused to a his-tag (from UniProt P28907 43-300) (domain or fragment)
